Measured values from US20250073303A1, “TDP-43 Interference Peptides, Methods, and Uses Thereof” (The University of British Columbia, priority 2022, published 2025).

Tests used:
TDP-43 = TDP-43 (Homo sapiens, UniProt Q13148); experiment: Peptide blocking of TDP-43 phosphorylation and aggregation in HEK293 cells overexpressing pcDNA3.1-FLAG-CK1δ1-317 (western blotting); assay type: cell-based; parameters: Endogenous TDP-43 was highly phosphorylated by active CK-1δ (lacking its regulatory domain); endogenous in cells; host or cells: HEK293 cells transfected with pcDNA3.1-FLAG-CK1δ1-317; conditions: HEK293, CK1δ1-317 overexpression
Protocol: Cell treatment and peptide blocking assay: Ethacrynic acid (EA) (Sigma, Saint Louis, MO) was dissolved in dimethyl sulfoxide (DMSO) at a stock concentration of 100 mM. For SH-SY5Y cells and HEK-293 cells, ethacrynic acid (EA) was added to the culture medium at 1:1000 to reach a final concentration of 100 μM. The treatment was maintained for 24 hours. For mouse cortical neurons, mature cortical neurons of 14 days in vitro (DIV) were used for experiments. Ethacrynic acid (EA) was added to neurons at a concentration of 20 μM for 5 hours. For peptide treatment in cell culture, the peptides were dissolved in double distilled water at a stock concentration of 10 mM and stored at −80° C. […] The primary cultured neurons were treated with peptide A, B, C and D mixture (equal concentration for each) at a final concentration of 5 μM and 10 μM.
The plasmids were transfected into HEK293 or SH-SY5Y cells using the Lipofectamine 2000 system. Before transfection, cells were plated at 80˜90% confluence and cultured in DMEM containing 10% fetal bovine serum (FBS). […]
Fractionation of cellular soluble and insoluble proteins: Cells or spinal cord tissue were harvested and lysed in 500 μl RIPA buffer [50 mM Tris-HCl pH 7.4; 150 mM NaCl; 1% NP-40; 0.5% Na-deoxycholate; 1 mM EDTA; 50 mM NaF; 1 mM PMSF and protease inhibitor] on ice. […] All the protein samples were further analyzed by Western immunoblotting. […]

SH-SY5Y cells = experiment: MTT assay of SH-SY5Y cells with ethacrynic acid challenge; assay type: cell-based, human; conditions: ethacrynic acid treatment compared with the control group
Protocol: Cell treatment and peptide blocking assay: Ethacrynic acid (EA) (Sigma, Saint Louis, MO) was dissolved in dimethyl sulfoxide (DMSO) at a stock concentration of 100 mM. For SH-SY5Y cells and HEK-293 cells, ethacrynic acid (EA) was added to the culture medium at 1:1000 to reach a final concentration of 100 μM. The treatment was maintained for 24 hours. For mouse cortical neurons, mature cortical neurons of 14 days in vitro (DIV) were used for experiments. Ethacrynic acid (EA) was added to neurons at a concentration of 20 μM for 5 hours. For peptide treatment in cell culture, the peptides were dissolved in double distilled water at a stock concentration of 10 mM and stored at −80° C. The combination of peptides A, B, C and D at equal concentration of 5 μM for each peptide and 20 μM in total was added into cultures of SH-SY5Y cells or HEK-293 cells one hour before ethacrynic acid treatment or pcDNA3.1-FLAG-CK1δ1-317 transfection. […]
MTT assay: The cell viability of SH-SY5Y cells after treatment of Ethacrynic acid (EA) was determined using the MTT assay (Sigma, Saint Louis, MO). Briefly, MTT solution was added to cells for 3-4 hours at 37° C. at the time when the cell viability was determined. […] On the second day, the plate was shaken for 15 minutes in the dark and absorbance at OD=595 nm was read using a plate reader (Envision 2103 Multilabel Reader, Perkin Elmer).

Chain of TDP-43 (Q13148 whole entry, the tested form may be a part): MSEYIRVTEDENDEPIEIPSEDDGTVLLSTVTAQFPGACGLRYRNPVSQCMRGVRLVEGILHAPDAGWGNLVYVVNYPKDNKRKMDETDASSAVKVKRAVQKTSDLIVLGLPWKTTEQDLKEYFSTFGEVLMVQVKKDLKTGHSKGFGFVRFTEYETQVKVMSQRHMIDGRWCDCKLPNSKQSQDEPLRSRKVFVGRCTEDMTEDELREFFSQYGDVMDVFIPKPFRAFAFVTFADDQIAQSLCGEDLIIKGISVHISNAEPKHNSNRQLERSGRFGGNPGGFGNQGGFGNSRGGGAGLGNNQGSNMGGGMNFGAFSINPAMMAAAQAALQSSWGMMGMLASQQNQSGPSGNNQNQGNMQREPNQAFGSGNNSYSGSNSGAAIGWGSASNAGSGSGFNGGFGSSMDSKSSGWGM

Molecule	TDP-43 phosphorylation in both the soluble fraction and insoluble fraction (TDP-43; 20 μM every 6 hours for a total of 48 hours)	TDP-43 aggregation induced by CK1δ (TDP-43; 40 μM every 6 hours for a total of 48 hours, compared with 20 μM)	cell death of SH-SY5Y cells (SH-SY5Y cells) [%]
ppTDP: peptide covering the T25 site and S403 site of TDP-43, with a linker sequence between the blocking sequences and a TAT sequence (YGRKKRRQRRRDGTVLLGGGGFGSSMDSKSSG)	efficiently blocked	did not block TDP-43 aggregation induced by CK1δ more effectively	–
C=C(CC)C(=O)c1ccc(OCC(=O)O)c(Cl)c1Cl [ethacrynic acid]	–	–	69.97
